The test system of the data set is Escherichia coli TOP10. Put plainly: shrunken log2 fold change of peptide-encoding DNA abundance (4.5 h post-induction vs induction); higher = less antimicrobial activity (less host growth inhibition). The following applies: time post-induction: 4.5 h; library: site-saturation at positions 5, 18, 19, 20.
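Note: peptides expressed intracellularly from a pBAD plasmid library in pooled LB shake-flask culture, induced with 0.3% L-arabinose, DNA abundance read by NGS, three biological replicates, DESeq2 with apeglm shrinkage.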

For the sequence RRIRARPPRLPRPRPRPSMLPRP, the “shrunken log2 fold change” value came to 0.0741. Next, RRIRTRPPRLPRPRPRPHGLPRP: -0.034.

For the sequence RRIRKRPPRLPRPRPRPYWKPRP, the “shrunken log2 fold change” value came out at 0.0282. The same measure for RRIRRRPPRLPRPRPRPNNCPRP: 0.129. Next, RRIRQRPPRLPRPRPRPSTHPRP: -0.465. For RRIRGRPPRLPRPRPRPRSQPRP, the “shrunken log2 fold change” value is 1.13.

For RRIRTRPPRLPRPRPRPLPWPRP, the “shrunken log2 fold change” value turned out to be 0.147.

For RRIRDRPPRLPRPRPRPDKFPRP, the “shrunken log2 fold change” value was 0.0288. RRIRSRPPRLPRPRPRPNAIPRP: the “shrunken log2 fold change” value turned out to be 0.235. Next, RRIRTRPPRLPRPRPRPNVKPRP: -0.137; RRIRHRPPRLPRPRPRPSWNPRP: -0.264.

Take RRIRSRPPRLPRPRPRPVPNPRP: the “shrunken log2 fold change” value is 0.105.

For RRIRTRPPRLPRPRPRPYVFPRP, the “shrunken log2 fold change” value was -0.394. Next, RRIRSRPPRLPRPRPRPTKIPRP: 0.00311; RRIRCRPPRLPRPRPRPDEFPRP: -0.169; RRIRERPPRLPRPRPRPVDEPRP: -0.56. The same measure for RRIRRRPPRLPRPRPRPCLQPRP: -0.0554; for RRIRVRPPRLPRPRPRPFGNPRP: 0.0432.

Turning to RRIRDRPPRLPRPRPRPMHPPRP, the “shrunken log2 fold change” value is -0.0589.

For RRIRKRPPRLPRPRPRPGRGPRP, the “shrunken log2 fold change” value was found to be 0.593. Next, RRIRHRPPRLPRPRPRPAHAPRP: -0.0771; RRIRLRPPRLPRPRPRPYEYPRP: -0.132; RRIRNRPPRLPRPRPRPCGSPRP: -0.0353. The same measure for RRIRCRPPRLPRPRPRPPCDPRP: 0.242; for RRIRMRPPRLPRPRPRPPKPPRP: 0.717. On to RRIRCRPPRLPRPRPRPVHHPRP, for which the “shrunken log2 fold change” value is -0.176. Next, RRIRFRPPRLPRPRPRPWFCPRP: 3.7. RRIRQRPPRLPRPRPRPLVVPRP: the “shrunken log2 fold change” value worked out at 0.0686. Next, RRIRSRPPRLPRPRPRPPMFPRP: 0.0179; RRIRARPPRLPRPRPRPKGFPRP: 0.102; RRIRMRPPRLPRPRPRPKKWPRP: 0.962. Next, RRIRWRPPRLPRPRPRPRQHPRP: 0.251; RRIRQRPPRLPRPRPRPGKYPRP: -0.17. The same measure for RRIRKRPPRLPRPRPRPITNPRP: 0.133. Turning to RRIRDRPPRLPRPRPRPTNDPRP, the “shrunken log2 fold change” value is 0.0152. Next, RRIRMRPPRLPRPRPRPCPCPRP: 0.495.

Consider RRIRRRPPRLPRPRPRPEIDPRP, for which the “shrunken log2 fold change” value was -0.00263. Next, RRIRERPPRLPRPRPRPQQTPRP: -0.0895; RRIRLRPPRLPRPRPRPNDGPRP: -0.127; RRIRGRPPRLPRPRPRPTGAPRP: 1.31.

For the sequence RRIRTRPPRLPRPRPRPYNVPRP, the “shrunken log2 fold change” value is -0.297. Take RRIRSRPPRLPRPRPRPKNVPRP: the “shrunken log2 fold change” value is -0.29.

As for RRIRFRPPRLPRPRPRPMDDPRP, the “shrunken log2 fold change” value is -0.182. The same measure for RRIRVRPPRLPRPRPRPEGRPRP: 0.0493; for RRIRDRPPRLPRPRPRPARCPRP: 0.446. The same measure for RRIRTRPPRLPRPRPRPFDMPRP: -0.00208. The same measure for RRIRARPPRLPRPRPRPSYEPRP: -0.069; for RRIRCRPPRLPRPRPRPVICPRP: -0.241; for RRIRFRPPRLPRPRPRPTACPRP: -0.118. Turning to RRIRDRPPRLPRPRPRPFINPRP, the “shrunken log2 fold change” value is -0.337. Next, RRIRVRPPRLPRPRPRPNVLPRP: 0.0178; RRIRCRPPRLPRPRPRPMHPPRP: -0.00769; RRIRLRPPRLPRPRPRPYAHPRP: -0.0393.

Regarding RRIRGRPPRLPRPRPRPPFVPRP, the “shrunken log2 fold change” value was 0.803. The same measure for RRIRQRPPRLPRPRPRPRRVPRP: 0.252.

In the case of RRIRQRPPRLPRPRPRPRNNPRP, the “shrunken log2 fold change” value was -0.173. On to RRIRHRPPRLPRPRPRPWIGPRP, for which the “shrunken log2 fold change” value was -0.0136. The same measure for RRIRERPPRLPRPRPRPVCDPRP: 0.078; for RRIRERPPRLPRPRPRPLMFPRP: -0.32; for RRIRRRPPRLPRPRPRPKMTPRP: 0.24. The same measure for RRIRFRPPRLPRPRPRPKTEPRP: 0.0656; for RRIRIRPPRLPRPRPRPYLRPRP: -0.086.

Regarding RRIRGRPPRLPRPRPRPPFEPRP, the “shrunken log2 fold change” value is 0.691. Next, RRIRSRPPRLPRPRPRPGECPRP: -0.181; RRIRDRPPRLPRPRPRPIIAPRP: 0.0706; RRIRFRPPRLPRPRPRPNYHPRP: -0.758. Turning to RRIRMRPPRLPRPRPRPNFMPRP, the “shrunken log2 fold change” value was -0.0364. The same measure for RRIRGRPPRLPRPRPRPQSGPRP: 0.0868; for RRIRRRPPRLPRPRPRPFPTPRP: 0.164; for RRIRIRPPRLPRPRPRPPCEPRP: 0.00219. The same measure for RRIRARPPRLPRPRPRPQCVPRP: 0.0695; for RRIRARPPRLPRPRPRPLAHPRP: 0.296; for RRIRTRPPRLPRPRPRPTASPRP: 0.0344.

With RRIRVRPPRLPRPRPRPPETPRP, the “shrunken log2 fold change” value is -0.0362. Next, RRIRQRPPRLPRPRPRPRAYPRP: -0.0505; RRIRIRPPRLPRPRPRPCQPPRP: -0.378; RRIRPRPPRLPRPRPRPIIQPRP: -0.402. Next, RRIRIRPPRLPRPRPRPWTEPRP: -0.843; RRIRLRPPRLPRPRPRPAKLPRP: -0.0675.

Regarding RRIRERPPRLPRPRPRPEFEPRP, the “shrunken log2 fold change” value is -0.159. Next, RRIRTRPPRLPRPRPRPHYNPRP: -0.75.

Regarding RRIRYRPPRLPRPRPRPNHLPRP, the “shrunken log2 fold change” value is -1.32. The same measure for RRIRPRPPRLPRPRPRPTVAPRP: 0.277; for RRIRQRPPRLPRPRPRPGPIPRP: 0.253; for RRIRSRPPRLPRPRPRPDWAPRP: 0.236. Next, RRIRCRPPRLPRPRPRPCASPRP: 0.0454. The same measure for RRIRDRPPRLPRPRPRPESMPRP: 0.0145; for RRIRCRPPRLPRPRPRPQHIPRP: -0.868. On to RRIRNRPPRLPRPRPRPLPAPRP, for which the “shrunken log2 fold change” value is 1.07. The same measure for RRIRERPPRLPRPRPRPNTIPRP: -0.45; for RRIRARPPRLPRPRPRPHHGPRP: -0.122; for RRIRPRPPRLPRPRPRPNGPPRP: -0.027.

Consider RRIRQRPPRLPRPRPRPVWKPRP, for which the “shrunken log2 fold change” value turned out to be 0.121.

Turning to RRIRLRPPRLPRPRPRPDHYPRP, the “shrunken log2 fold change” value turned out to be 0.101. Take RRIRWRPPRLPRPRPRPADVPRP: the “shrunken log2 fold change” value was -0.305. In the case of RRIRWRPPRLPRPRPRPWRIPRP, the “shrunken log2 fold change” value was -0.604. For RRIRSRPPRLPRPRPRPIKHPRP, the “shrunken log2 fold change” value is -0.0703. The same measure for RRIRGRPPRLPRPRPRPNANPRP: 0.837; for RRIRFRPPRLPRPRPRPRGNPRP: -0.0828.

As to RRIRCRPPRLPRPRPRPGQVPRP, the “shrunken log2 fold change” value is 0.0846. Next, RRIRRRPPRLPRPRPRPVREPRP: 0.0195; RRIRARPPRLPRPRPRPVIIPRP: -0.104. The same measure for RRIRSRPPRLPRPRPRPTFTPRP: -0.269; for RRIRIRPPRLPRPRPRPKAKPRP: 0.329; for RRIRRRPPRLPRPRPRPCGEPRP: 0.0238. In the case of RRIRIRPPRLPRPRPRPGLMPRP, the “shrunken log2 fold change” value is -0.0194. Next, RRIRPRPPRLPRPRPRPRFEPRP: 0.0793; RRIRNRPPRLPRPRPRPKERPRP: 0.0296; RRIRERPPRLPRPRPRPSTAPRP: -0.151.

RRIRRRPPRLPRPRPRPQSNPRP: the “shrunken log2 fold change” value was -0.285. Next, RRIRNRPPRLPRPRPRPGGTPRP: 0.154; RRIRARPPRLPRPRPRPDQLPRP: 0.421; RRIRTRPPRLPRPRPRPWSDPRP: -0.0131. The same measure for RRIRTRPPRLPRPRPRPVACPRP: -0.0699. The same measure for RRIRKRPPRLPRPRPRPESGPRP: 0.918; for RRIRERPPRLPRPRPRPTDPPRP: -0.152; for RRIRRRPPRLPRPRPRPQWRPRP: 0.364.

Consider RRIRVRPPRLPRPRPRPHTLPRP, for which the “shrunken log2 fold change” value was -0.571. Next, RRIRSRPPRLPRPRPRPFGKPRP: -0.0207; RRIRKRPPRLPRPRPRPRWSPRP: 0.559; RRIRERPPRLPRPRPRPFWLPRP: 0.463. Next, RRIRMRPPRLPRPRPRPRFFPRP: 0.286; RRIRQRPPRLPRPRPRPVLGPRP: 0.226.

For RRIRSRPPRLPRPRPRPSRRPRP, the “shrunken log2 fold change” value is 0.208. The same measure for RRIRVRPPRLPRPRPRPTDNPRP: -0.363.

For the origin of these results see the supplement of paper PMC9112550, “Optimization of the antimicrobial peptide Bac7 by deep mutational scanning” (BMC Biology, 2022).
